These results are taken from patent publication US20220098307A1 (WUHAN YZY BIOPHARMA, published 2022).

Where a chain is given by its changes, count along the chain named.

B1: M3IC-G2 (bispecific antibody)
chain 1: EVKLDETGGGLVQPGRPMKLSCVASGFTFSDYWMNWVRQSPEKGLEWVAQIRNKPYNYETYYSDSVKGRFTISRDDSKSSVYLQMNNLRVEDMGIYYCTGSYYGMDYWGQGTSVTVSSASTKGPSVFPLAPSSKSTSGGTAALGCLVKDYFPEPVTVSWNSGALTSGVHTFPAVLQSSGLYSLSSVVTVPSSSLGTQTYICNVNHKPSNTKVDKKVEPKSCGGGGSGGGGSQVQLVESGGGVVQPGRSLRLSCAASGFTFSTYAMNWVRQAPGKGLEWVARIRSKYNNYATYYADSVKDRFTISRDDSKNTLYLQMNSLRAEDTAVYYCARHGNFGNSYVSWFAYWGQGTLVTVSSASVAAPSVFIFPPSDEQLKSGTASVVCLLNNFYPREAKVQWKVDNALQSGNSQESVTEQDSKDSTYSLSSTLTLSKADYEKHKVYACEVTHQGLSSPVTKSFNRGECDKTHTCPPCPAPPVAGPSVFLFPPKPKDTLMISRTPEVTCVVVDVSHEDPEVQFNWYVDGVEVHNAKTKPREEQFNSTFRVVSVLTVVHQDWLNGKEYKCKVSNKGLPAPIEKTISKTKGQPREPQVYTLPPCRDELTKNQVSLWCLVKGFYPSDIAVEWESNGQPENNYKTTPPVLDSDGSFFLYSKLTVDKSRWQQGNVFSCSVMHEALHNHYTQKSLSLSPGK
chain 2: QTVVTQEPSLTVSPGGTVTLTCRSSTGAVTTSNYANWVQQKPGQAPRGLIGGTNKRAPGVPARFSGSLLGGKAALTLSGVQPEDEAEYYCALWYSNLWVFGGGTKVEIKSSASTKGPSVFPLAPSSKSTSGGTAALGCLVKDYFPEPVTVSWNSGALTSGVHTFPAVLQSSGLYSLSSVVTVPSSSLGTQTYICNVNHKPSNTKVDKKVEPKSC
heavy: EVKLDETGGGLVQPGRPMKLSCVASGFTFSDYWMNWVRQSPEKGLEWVAQIRNKPYNYETYYSDSVKGRFTISRDDSKSSVYLQMNNLRVEDMGIYYCTGSYYGMDYWGQGTSVTVSSASTKGPSVFPLAPSSKSTSGGTAALGCLVKDYFPEPVTVSWNSGALTSGVHTFPAVLQSSGLYSLSSVVTVPSSSLGTQTYICNVNHKPSNTKVDKKVEPKSCDKTHTCPPCPAPPVAGPSVFLFPPKPKDTLMISRTPEVTCVVVDVSHEDPEVQFNWYVDGVEVHNAKTKPREEQFNSTFRVVSVLTVVHQDWLNGKEYKCKVSNKGLPAPIEKTISKTKGQPREPQVCTLPPSRDELTKNQVSLSCAVKGFYPSDIAVEWESNGQPENNYKTTPPVLDSDGSFFLVSKLTVDKSRWQQGNVFSCSVMHEALHNRFTQKSLSLSPGK
light: DVVMTQTPLSLPVSLGDQASISCRSSQSLVHSNGNTYLRWYLQKPGQSPKVLIYKVSNRFSGVPDRFSGSGSGTDFTLKISRVEAEDLGVYFCSQSTHVPWTFGGGTKLEIKRTVAAPSVFIFPPSDEQLKSGTASVVCLLNNFYPREAKVQWKVDNALQSGNSQESVTEQDSKDSTYSLSSTLTLSKADYEKHKVYACEVTHQGLSSPVTKSFNRGEC
notes: structure 3 isotype control; CH2 G2CH2
B2: M3IC-DG2 (bispecific antibody)
chain 1: B1 chain 1 with D507A
chain 2: B1 chain 2
heavy: B1 heavy with D265A
light: B1 light
notes: structure 3 isotype control; CH2 DG2CH2
B3: M3IC-DG2D (bispecific antibody)
chain 1: B1 chain 1 with D507A, D512A
chain 2: B1 chain 2
heavy: B1 heavy with D265A, D270A
light: B1 light
notes: structure 3 isotype control; CH2 DG2DCH2
B4: M3IC-AG2 (bispecific antibody)
chain 1: B1 chain 1 with C472A
chain 2: B1 chain 2
heavy: B1 heavy with C230A
light: B1 light
notes: structure 3 isotype control; CH2 AG2CH2
B5: M2IC-AG2 (bispecific antibody, human IgG1, kappa)
chain: EVKLDETGGGLVQPGRPMKLSCVASGFTFSDYWMNWVRQSPEKGLEWVAQIRNKPYNYETYYSDSVKGRFTISRDDSKSSVYLQMNNLRVEDMGIYYCTGSYYGMDYWGQGTSVTVSSASTKGPSVFPLAPSSKSTSGGTAALGCLVKDYFPEPVTVSWNSGALTSGVHTFPAVLQSSGLYSLSSVVTVPSSSLGTQTYICNVNHKPSNTKVDKKVEPKSCDKTHTGGGSAAAQVQLVESGGGVVQPGRSLRLSCAASGFTFSTYAMNWVRQAPGKGLEWVARIRSKYNNYATYYADSVKDRFTISRDDSKNTLYLQMNSLRAEDTAVYYCARHGNFGNSYVSWFAYWGQGTLVTVSSGGGGSGGGGSGGGGSQTVVTQEPSLTVSPGGTVTLTCRSSTGAVTTSNYANWVQQKPGQAPRGLIGGTNKRAPGVPARFSGSLLGGKAALTLSGVQPEDEAEYYCALWYSNLWVFGGGTKVEIKGGGGSDKTHTCPPAPAPPVAGPSVFLFPPKPKDTLMISRTPEVTCVVVDVSHEDPEVQFNWYVDGVEVHNAKTKPREEQFNSTFRVVSVLTVVHQDWLNGKEYKCKVSNKGLPAPIEKTISKTKGQPREPQVYTLPPCRDELTKNQVSLWCLVKGFYPSDIAVEWESNGQPENNYKTTPPVLDSDGSFFLYSKLTVDKSRWQQGNVFSCSVMHEALHNHYTQKSLSLSPGK
heavy: B1 heavy with C230A
light: B1 light
notes: structure 2 isotype control; CH2 AG2CH2
B6: M2IC-GG2 (bispecific antibody, human IgG1, kappa)
chain: B5 chain with A496G
heavy: B1 heavy with C230G
light: B1 light
notes: structure 2 isotype control; CH2 GG2CH2
B7: M2IC-SG2 (bispecific antibody, human IgG1, kappa)
chain: B5 chain with A496S
heavy: B1 heavy with C230S
light: B1 light
notes: structure 2 isotype control; CH2 SG2CH2
B8: M2IC-DG2 (bispecific antibody, human IgG1, kappa)
chain: B5 chain with A496C, D531A
heavy: B1 heavy with D265A
light: B1 light
notes: structure 2 isotype control; CH2 DG2CH2
B9: M2IC-DG2D (bispecific antibody, human IgG1, kappa)
chain: B5 chain with A496C, D531A, D536A
heavy: B1 heavy with D265A, D270A
light: B1 light
notes: structure 2 isotype control; CH2 DG2DCH2
B10: M2IC-G2D (bispecific antibody, human IgG1, kappa)
chain: B5 chain with A496C, D536A
heavy: B1 heavy with D270A
light: B1 light
notes: structure 2 isotype control; CH2 G2DCH2
B11: M2IC-PG2 (bispecific antibody, human IgG1, kappa)
chain: B5 chain with A496P
heavy: B1 heavy with C230P
light: B1 light
notes: structure 2 isotype control; CH2 PG2CH2

The target in one test is T1, human CEA (human, UniProt P06731 35-685).
T1 sequence: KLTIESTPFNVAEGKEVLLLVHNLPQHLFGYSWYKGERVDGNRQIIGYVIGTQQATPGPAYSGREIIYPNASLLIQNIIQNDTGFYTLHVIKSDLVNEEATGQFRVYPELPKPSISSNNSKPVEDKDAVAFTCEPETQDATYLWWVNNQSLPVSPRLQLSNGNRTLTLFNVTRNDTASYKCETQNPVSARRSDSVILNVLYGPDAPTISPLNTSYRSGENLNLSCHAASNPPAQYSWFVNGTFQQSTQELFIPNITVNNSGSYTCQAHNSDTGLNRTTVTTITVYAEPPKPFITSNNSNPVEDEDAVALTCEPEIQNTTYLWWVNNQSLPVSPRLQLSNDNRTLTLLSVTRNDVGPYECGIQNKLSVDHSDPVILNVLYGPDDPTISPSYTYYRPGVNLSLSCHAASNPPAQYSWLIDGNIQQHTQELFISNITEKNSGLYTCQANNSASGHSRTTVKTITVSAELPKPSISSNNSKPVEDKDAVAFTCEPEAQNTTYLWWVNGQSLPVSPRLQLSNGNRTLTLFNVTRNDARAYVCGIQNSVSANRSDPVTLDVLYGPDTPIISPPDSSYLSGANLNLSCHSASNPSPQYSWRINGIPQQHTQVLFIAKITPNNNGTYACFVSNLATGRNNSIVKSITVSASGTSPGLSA
The test can be described thus: flow cytometry, human tumor cells (table of the CEA series). The source says: (§1) 1) Cell preparation: T cells isolated from CD3-positive human whole blood were used for a CD3 end affinity detection of multifunctional antibody molecule; positive tumor cells of corresponding antigen were used for detecting affinity of tumor antigen; for example, CD38-positive MM. 1S cells (purchased from the Cell Resource Center of Shanghai Institutes for Biological Sciences, Chinese Academy of Sciences) or RPMI 8226 cells (purchased from the Cell Resource Center of Shanghai Institutes for Biological Sciences, Chinese Academy of Sciences) were used for CD38 antigen detection, and PD-L1 positive H358 cells (purchased from the Cell Resource Center of Shanghai Institutes for Biological Sciences, Chinese Academy of Sciences) were used for PD-L1 antigen detection, and so on. The cells were resuspended with 1% FBS-PBS, adjusted to a density of 4×10⁶/ml, and 50 μl of cells were taken from each well, and then plated at 2×10⁵ per well. Cell plating was operated on ice
(§2) 2) Addition of the antibody: according to the experimental design, the antibody was diluted gradually, and dilution of antibody was operated on ice. For example, the initial concentration of antibody for dilution was 3000 nM, and the antibody was diluted by 3 times with 11 concentration gradients. The diluted antibody was added to a cell well at 50 μl per well, mixed well, and shaked and incubated at 4° C. 1100 rpm/min for 2 h; after washing, the cells were resuspend in 1% FBS-PBS, and a diluted secondary antibody PE anti-human IgG FC (Biolegend, 409304) was added with a final concentration of 8 ug/ml and a volume of 50 μl/well. At the same time, a well only added with cells and secondary antibody was set as a control, the components were mixed well, and incubated under shaking at 1100 rpm/min at 4° C. for 1 h;
(§3) 5) Data analysis: the data was analyzed by a flow analysis software FlowJo 7.6 thereby obtaining an average fluorescence intensity of the specific antibody concentration, plotted by a Graphpad Prism 5 with the antibody concentration (nM) as an abscissa and the average fluorescence intensity as an ordinate; the EC50 value was calculated by the method of One site—Specific binding, and the EC50 value indicated the cell affinity of the antibody to the corresponding target antigen.
Turning to B1, the binding result is reported as “no binding”.
B2: the binding result is recorded as “no binding”.
With B3, the binding result was “no binding”.
Regarding B4, the binding result is reported as “no binding”.

The target of another test is T2, Human BCMA (human, UniProt Q02223 1-54).
T2 sequence: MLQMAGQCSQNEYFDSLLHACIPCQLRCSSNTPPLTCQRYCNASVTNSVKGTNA
The test can be described thus: flow cytometry, human tumor cells (table of the BCMA series).
From the text: as §1, §2, §3
On to B5, for which the binding result is “no binding”.
B6: the binding result was “no binding”.
As to B7, the binding result is recorded as “no binding”.
Turning to B8, the binding result is given as “no binding”.
Take B9: the binding result is “no binding”.
B10: the binding result was “no binding”.
With B11, the binding result was “no binding”.

In a further test the target is T3, Monkey CD3 (monkey).
T3 construct: whole, on cells; also called CD3 of monkey CD3 positive T cells
The test can be described thus: flow cytometry, monkey T cells. For orientation: In flow cytometry, cells or beads pass a laser one at a time.
The molecule B5 registered an EC50 of 607 nM.
With B6, the EC50 turned out to be 538 nM.
As for B7, the EC50 worked out at 525 nM.
Turning to B8, the EC50 was 570 nM.
B9 came in with an EC50 of 519 nM.
B10 registered an EC50 of 538 nM.
Regarding B11, the EC50 was found to be 656 nM.

Another test has as its target T4, Human CD3ε (human, UniProt P07766 23-126).
T4 construct: CD3 on T cells isolated from human whole blood
The test can be described thus: flow cytometry, human T cells. In a few lines:
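Cell binding by flow cytometry: antigen-positive tumor cells (e.g. MM.1S or RPMI 8226 for CD38) or CD3+ T cells, 2×10⁵/well, with antibody 3-fold diluted over 11 points from 3000 nM, 2 h at 4° C with shaking.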
On to B5, for which the EC50 is 535 nM.
The molecule B1 displayed an EC50 of 701 nM.
Molecule B6 showed an EC50 of 556 nM.
B2: the EC50 was 710 nM.
With B7, the EC50 is 481 nM.
Same read-out and setting: for B3 the value was 638 nM; for B8, 357 nM.
B9: the EC50 amounted to 452 nM.
B10 came in with an EC50 of 367 nM.
With B4, the EC50 amounted to 674 nM.
B11: the EC50 turned out to be 467 nM.

As a reminder, the EC50 is the concentration giving half of the maximal effect.
